According to patent US20250206820A1:

target: ILT3 on target cells (MOLM13, OCI-AML-2, NALM-1, THP-1, MM1S, H929, U226B1 and other lines) (human) (UniProt Q8NHJ6); assay: cell-based or functional assay
Sequence (Q8NHJ6 22-448, one chain of several): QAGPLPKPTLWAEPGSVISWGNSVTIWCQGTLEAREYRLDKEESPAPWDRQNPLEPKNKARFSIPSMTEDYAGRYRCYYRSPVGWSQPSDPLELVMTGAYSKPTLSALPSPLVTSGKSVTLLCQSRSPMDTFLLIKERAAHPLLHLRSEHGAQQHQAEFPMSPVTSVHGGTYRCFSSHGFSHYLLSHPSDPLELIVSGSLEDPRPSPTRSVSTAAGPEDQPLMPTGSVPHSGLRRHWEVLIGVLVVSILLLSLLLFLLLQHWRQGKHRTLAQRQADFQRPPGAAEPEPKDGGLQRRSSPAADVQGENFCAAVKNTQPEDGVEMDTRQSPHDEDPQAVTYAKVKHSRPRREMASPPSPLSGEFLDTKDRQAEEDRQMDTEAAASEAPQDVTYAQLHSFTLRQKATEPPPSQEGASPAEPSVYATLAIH

Binder	TDCC, EC50 [nM]	TNF-α, EC50 (nM), cytokine release in the TDCC co-culture [nM]
48A6 Fab coupled with CD3 scFv 1G4 (bispecific antibody, part only; not given: CD3 scFv 1G4, V domains shown, part only) VH: EVQLVESGGDLMKPGGSLKLSCAASGFTFSSYGMSWVRQTPDKRLEWVATISSGGTYTFYPDSVKGRFTISRDNAKNTLYLQMSSLKSEDTAMYYCARRGWLLHYYAMDYWGQGTSVTVSS VL: NIVLTQSPASLAVSLGQRATISCRPSESVDSFGNSFMHWFQQKPGQPPKLLIYLSSKLESGVPARFSGSGSRTDFTLTIDPVEADDAATYYCQQHNEDPFTFGSGTKLEIK	0.5	
Hz45G10 Fab coupled with CD3 scFv 1G4 (bispecific antibody, part only; not given: CD3 scFv 1G4, V domains shown, part only) VH: EVQLVESGGGLVQPGGSLRLSCAASGFTFSDYGMHWVRQAPGKGLEWVAYIFSGSSTIYYADTVKGRFTISRDNAKNSLYLQMNSLRAEDTAVYYCARADGRGAMDYWGQGTLVTVSS VL: DIQMTQSPSSLSASVGDRVTITCRASQDISKFLNWYQQKPGKAPKLLIYYTSRLHSGVPSRFSGSGSGTDFTFTISSLQPEDIATYFCQQGNTLPWTFGGGTKLEIK	1.26	
12A12 Fab coupled with CD3 scFv 2B2 (bispecific antibody, part only; not given: CD3 scFv 2B2, V domains shown, part only) VH: EVQLQQSGPELVKPGASVKISCKASGYTFTDYNMDWVKQSHGKSLEWIGYIYPNNGGTGYNQKFNSKATLTVDKSSSTAYMELHSLTSEDSAVYYCASSPYYDYVGSYAMDYWGQGTSVTVSS VL: QIVLTQSPAIMSASLGERVTMTCTASSSVSSSYLHWYQQKPGSSPKLWIYSTSNLASGVPARFSGSGSGTSYSLTISSMEAEDAATYYCHQYHRSPRTFGGGTKLEIK	3.16	2510
53F10 Fab coupled with CD3 scFv 2B2 (bispecific antibody, part only; not given: CD3 scFv 2B2, V domains shown, part only) VH: EVQVVESGGGLVKPGGSLKLSCAASGFTFSDYGMHWVRQAPEKGLEWVAYISTGIITVYYADTVKGRFTMSRDNAKNTLFLQMTSLRSEDTAIYYCARADGRGAMDYWGQGTSVIVSS VL: DIQMTQTTSSLSASLGDRVTISCRASQDISNFLNWYQQKPDGTVTLLIYYTSRLHSGVPSRFSGSGSGTDYSLTISNLEQEDFATYFCQQGNTLPWTFGGGTKLEIK	0.013	2
53F10 Fab coupled with CD3 scFv 1G4 (bispecific antibody, part only; not given: CD3 scFv 1G4, V domains shown, part only) VH: EVQVVESGGGLVKPGGSLKLSCAASGFTFSDYGMHWVRQAPEKGLEWVAYISTGIITVYYADTVKGRFTMSRDNAKNTLFLQMTSLRSEDTAIYYCARADGRGAMDYWGQGTSVIVSS VL: DIQMTQTTSSLSASLGDRVTISCRASQDISNFLNWYQQKPDGTVTLLIYYTSRLHSGVPSRFSGSGSGTDYSLTISNLEQEDFATYFCQQGNTLPWTFGGGTKLEIK	2	
3A3 Fab coupled with CD3 scFv 2B2 (bispecific antibody, part only; not given: CD3 scFv 2B2, V domains shown, part only) VH: QVQLKESGPGLVAPSQSLSITCTVSGFSLTSYGVHWVRQPPGKGLEWLGVIWPGGTINYNSALMSRLSISKDNSKSQVFLKLNSLQTDDTAMYYCASDKYDGGWFAYWGQGTLVTVSA VL: DIVMTQSQKFMSTSVGDRVSITCKASQNVRTAVAWYQQKPGQSPEALIYLASNRHTGVPDRFTGSGSGTDFSLSISNVQSEDLADYFCLQHLNYPLTFGSGTKLEIK	0.4	79.4

Next, values leading:

TDCC, EC50 [nM]	TNF-α, EC50 (nM), cytokine release in the TDCC co-culture [nM]	Binder
0.025	2.51	48A6 Fab coupled with CD3 scFv 2B2 (bispecific antibody, part only; not given: CD3 scFv 2B2, V domains shown, part only) VH: EVQLVESGGDLMKPGGSLKLSCAASGFTFSSYGMSWVRQTPDKRLEWVATISSGGTYTFYPDSVKGRFTISRDNAKNTLYLQMSSLKSEDTAMYYCARRGWLLHYYAMDYWGQGTSVTVSS VL: NIVLTQSPASLAVSLGQRATISCRPSESVDSFGNSFMHWFQQKPGQPPKLLIYLSSKLESGVPARFSGSGSRTDFTLTIDPVEADDAATYYCQQHNEDPFTFGSGTKLEIK
50.1		16C5 Fab coupled with CD3 scFv 1G4 (bispecific antibody, part only; not given: CD3 scFv 1G4, V domains shown, part only) VH: EVQLQQSGPELVKPGASVKISCKASGYTFTDYNMDWVKQSHGKSLEWIGYIYPSNGGTGYNQKFKSKATLTVDKSSNTAYMELHSLTSEDSAVYYCARVPYYDYLYYYAMDYWGQGTSVTVSS VL: QIVLSQSPAILSASPGEKVTMACRASSSVSFMHWYQQKPGSSPQPWIYATSNLASGVPARFSGSGSGTSYSLTISRVEAEDAATYYCQQWSTNPYMYTFGGGTKLEIK
3.16	398	16C5 Fab coupled with CD3 scFv 2B2 (bispecific antibody, part only; not given: CD3 scFv 2B2, V domains shown, part only) VH: EVQLQQSGPELVKPGASVKISCKASGYTFTDYNMDWVKQSHGKSLEWIGYIYPSNGGTGYNQKFKSKATLTVDKSSNTAYMELHSLTSEDSAVYYCARVPYYDYLYYYAMDYWGQGTSVTVSS VL: QIVLSQSPAILSASPGEKVTMACRASSSVSFMHWYQQKPGSSPQPWIYATSNLASGVPARFSGSGSGTSYSLTISRVEAEDAATYYCQQWSTNPYMYTFGGGTKLEIK
251		12A12 Fab coupled with CD3 scFv 1G4 (bispecific antibody, part only; not given: CD3 scFv 1G4, V domains shown, part only) VH: EVQLQQSGPELVKPGASVKISCKASGYTFTDYNMDWVKQSHGKSLEWIGYIYPNNGGTGYNQKFNSKATLTVDKSSSTAYMELHSLTSEDSAVYYCASSPYYDYVGSYAMDYWGQGTSVTVSS VL: QIVLTQSPAIMSASLGERVTMTCTASSSVSSSYLHWYQQKPGSSPKLWIYSTSNLASGVPARFSGSGSGTSYSLTISSMEAEDAATYYCHQYHRSPRTFGGGTKLEIK
50.1		3A3 Fab coupled with CD3 scFv 1G4 (bispecific antibody, part only; not given: CD3 scFv 1G4, V domains shown, part only) VH: QVQLKESGPGLVAPSQSLSITCTVSGFSLTSYGVHWVRQPPGKGLEWLGVIWPGGTINYNSALMSRLSISKDNSKSQVFLKLNSLQTDDTAMYYCASDKYDGGWFAYWGQGTLVTVSA VL: DIVMTQSQKFMSTSVGDRVSITCKASQNVRTAVAWYQQKPGQSPEALIYLASNRHTGVPDRFTGSGSGTDFSLSISNVQSEDLADYFCLQHLNYPLTFGSGTKLEIK
